In PMC11363328, “Identification of Rocaglate Acyl Sulfamides as Selective Inhibitors of Glioblastoma Stem Cells”:

How the values were obtained:
Settings in all cases: protein: recombinant; single strand
eIF4A1 [1] = molecular target: T1, eIF4A1 (UniProt P60842 1-406); assay: fluorescence polarization, protein titration; 50 uM (-)-20, 1 mM ATP; EC50 for complex formation, range for all three compounds; FP: 14.4 mM HEPES-KOH pH 8, 108 mM NaCl, 1 mM MgCl2, 14.4% glycerol, 0.1% DMSO, 2 mM DTT, 1 mM ATP, 10 nM probe, room temperature, 10 min
T1 sequence (P60842 whole entry): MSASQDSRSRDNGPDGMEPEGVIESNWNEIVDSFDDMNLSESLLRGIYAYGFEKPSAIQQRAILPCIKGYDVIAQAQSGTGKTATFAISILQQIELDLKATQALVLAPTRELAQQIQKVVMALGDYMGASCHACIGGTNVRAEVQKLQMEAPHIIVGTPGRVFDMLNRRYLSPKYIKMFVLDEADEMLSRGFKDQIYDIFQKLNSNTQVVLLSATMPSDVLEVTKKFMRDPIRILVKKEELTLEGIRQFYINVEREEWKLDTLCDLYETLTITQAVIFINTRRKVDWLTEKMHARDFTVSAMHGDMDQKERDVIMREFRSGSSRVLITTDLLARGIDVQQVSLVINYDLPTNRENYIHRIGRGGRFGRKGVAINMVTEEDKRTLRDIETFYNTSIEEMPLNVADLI

eIF4A1 [2] = molecular target: T1, eIF4A1; assay: fluorescence polarization, protein titration; 50 uM (-)-5, 1 mM ATP; EC50 for complex formation, range for all three compounds; FP: 14.4 mM HEPES-KOH pH 8, 108 mM NaCl, 1 mM MgCl2, 14.4% glycerol, 0.1% DMSO, 2 mM DTT, 1 mM ATP, 10 nM probe, room temperature, 10 min
eIF4A1 [3] = molecular target: T1, eIF4A1; assay: fluorescence polarization, protein titration; 50 uM (-)-7, 1 mM ATP; EC50 for complex formation, range for all three compounds; FP: 14.4 mM HEPES-KOH pH 8, 108 mM NaCl, 1 mM MgCl2, 14.4% glycerol, 0.1% DMSO, 2 mM DTT, 1 mM ATP, 10 nM probe, room temperature, 10 min

Measured: apparent K (half saturation)

AGAGAGAGAGAGAGAG (ssRNA) [FAM-r(AG)8]
~245 nM: all assays above
